Laboratory results published in the supplement of paper PMC9170038.

Test system: MS2 coat protein
Assay: apparent KD of MS2 coat protein; designed switch direction (-1 OFF switch, 1 ON switch): -1; higher = weaker reporter binding
Summary of the method: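 SNAP-549-labelled MS2 coat protein was titrated, doubling from 0.7 or 1.5 nM to 3 µM, over designed RNA switches transcribed on Illumina chips by stalled E. coli RNA polymerase. Runs were done without input, with 200 uM small-molecule ligand, or with an oligonucleotide input. Apparent KD is the per-design median over clusters of curve-fitted normalised fluorescence.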

[1] = input ligand: microRNA oligo, concentration not stated
[2] = Eterna round: R95, input ligand: FMN 200 uM
[3] = Eterna round: R95, input ligand: microRNA oligo, concentration not stated
[4] = Eterna round: R95, input ligand: none

Sequence | apparent KD of MS2 coat protein (input ligand: FMN 200 uM) | apparent KD of MS2 coat protein [1] | apparent KD of MS2 coat protein (input ligand: none) | apparent KD of MS2 coat protein [2] | apparent KD of MS2 coat protein [3] | apparent KD of MS2 coat protein [4]
ACAAGCUUAGGUAAUCAUAACAUGAGGAUCACCCAUGUUCGUCUUAUAAAAAUAAAAAUAAAAAACAAAAAAUAAAA [Sensor V2: 65] (Eterna round: R96, puzzle: Sensor v2, turn-off variant) | 33.3 nM | 70.6 nM | 33.8 nM |  |  | 
ACAAGCUUGUAAUGAUAGAACAUGAGGAUCACCCAUGUAAAUGGAAGAACCAAUUGGAUAAGAUAAACUCGUCUUAU [JR_STOV1_Sub003] (Eterna round: R97, puzzle: Sensor, turn-off variant 1) | 114 nM |  | 127 nM |  |  | 
ACAAGCUUUUAGAUUUUCAACAUGAGGAUCACCCAUGUUCGUCUUAGGCUAGUGCGAGUGCGGUGUACUCGUAUUAG [JL TOV1 3.84 sellena mod] (Eterna round: R97, puzzle: Sensor, turn-off variant 1) | 18.2 nM |  | 16.4 nM |  |  | 
ACAAGCUUUUUGCAAUUUAGUUUUGUUGCUUCGUAGGUAACAUGAGGAUCACCCAUGUAAGAGUGAUGUCGUCUUAU [JR_SV3TOV2_Sub084] (puzzle: Sensor v3, turn-off variant 2) |  |  |  | 520 nM | 141 nM | 609 nM
ACAAGCUUUUUGCAUCAAGCAUUAAAGUCUGUGAUCGUAACAUGAGGAUCACCCAUGUAAGUUUUAUGACGUCUUAU [JR_SV3TOV2_Sub096] (puzzle: Sensor v3, turn-off variant 2) |  |  |  | 24.8 nM | 39.8 nM | 25.3 nM
ACAAGCUUUUUGCAUCAAGCAUUAAAGUCUGUGAUCGUAACAUGAGGAUCACCCAUGUAAGUUUUAUGUCGUCUUAU [JR_SV3TOV2_Sub097] (puzzle: Sensor v3, turn-off variant 2) |  |  |  | 39.7 nM | 48.3 nM | 41.1 nM
ACAAGCUUUUUGCUCGGGUACAUGAGGAUCACCCAUGUUUGGGUUUAUUGAGGUUGUGUUGUCGUGCGCUGCAGGUU [JR_SV3TOV1_Sub076] (puzzle: Sensor v3, turn-off variant 1) |  |  |  | 165 nM | 416 nM | 232 nM
ACAAGCUUUUUGUUCGUCUUAUAAUAUUCAAUAAGGAUAACAUGAGGAUCACCCAUGUAACAAAGACGGACUCAUGU [Sesor Array 15 - Jieux - Sensor v3, turn-off variant 2] (puzzle: Sensor v3, turn-off variant 2) |  |  |  | 17.2 nM | 133 nM | 13 nM
ACACCGCAAGGAUAUACUUGCGGUGGUGUUCGAAGCUUUCUACUUGAGGAUCACCCAAGUAGAAGGUGCGGUGU [jl-ex2.4.73 ViennaUCT mod] (Eterna round: R97, puzzle: Exclusion 2) | 12.8 nM |  | 12.3 nM |  |  | 
ACACUUGAACAUGAGGAUCACCCAUGUGUUUUUCUGGUUCGGCAGGAUAUCGUCUAACGCCAGGGCGAGAAGGGCCAAUAAAAG [Inlale] (Eterna round: R96, puzzle: Exclusion NG 3) | 26 nM | 29.4 nM | 37 nM |  |  | 
ACAGAGCAAGGAUAUGCCGGGCGUGACAUGAGGAUCACCCAUGUGAUGCCGGUACGUUUAGCAGAAGGUGCAGGCA [EX5 C.2] (Eterna round: R97, puzzle: Exclusion 5) | 19 nM |  | 14.8 nM |  |  | 
ACAGUACUGCAAGGAUAUCGUUCUAGUUUAUUACGAGAAGGUGCUUUAGUUAUUUCUUUGUGUUGACAUGAGGAUCACCCAUGU [JR_ExcNG1_Sub055] (Eterna round: R96, puzzle: Exclusion NG 1) | 18.9 nM | 17.9 nM | 26.4 nM |  |  | 
ACAGUUCUGCAAGGAUAUCGUCCUAGUUUGUUUCGAGAAGGUGCUUUUGUUUUUUCCUUUUGUUUACAUGAGGAUCACCCAUGU [JR_ExcNG1_Sub051] (Eterna round: R96, puzzle: Exclusion NG 1) | 15.6 nM | 16.6 nM | 18.9 nM |  |  | 
ACAUCCUUAGUAAGGAUAUCGUCCGCCGAGGCGGGCGAGAAGGUACAUGAGGAUCACCCAUGUAUGCAGCAGAU [Eternabot (L2) Solution 59] (Eterna round: R97, puzzle: Brourd's mod of Exclusion 4) | 19.1 nM |  | 14 nM |  |  | 
ACAUGAGGAUCACCCAUGUAAACAUAAUGGCUCAUGUAGAGUCAGGAUAUGCGUGGCGAACACGCGCAGAAGGGACAAGACUGG [Deportation 24 - Jieux - Exclusion NG 3] (Eterna round: R96, puzzle: Exclusion NG 3) | 32.4 nM | 21 nM | 31 nM |  |  | 
ACAUGAGGAUCACCCAUGUAAUGAAGGGUACUAUACUAAACGUAGGAUAUCGAUGUAAGAUUGUACGAGAAGGACGAUUGCCUU [JR_ExcNG3_Sub051] (Eterna round: R96, puzzle: Exclusion NG 3) |  | 29.3 nM |  |  |  | 
ACAUGAGGAUCACCCAUGUCAGGCGGGUCCACUCCGGCUGUUGAGGAUAUAGCCCGGUAUCCGCGCUAGAAGGUGAGGGCCGGC [Aenatbe mod 25] (Eterna round: R96, puzzle: Exclusion NG 3) | 23.1 nM | 18.4 nM | 24.1 nM |  |  | 
ACAUGAGGAUCACCCAUGUCAGGUGGGUCCUCUCCGGCUGUUGAGGAUAUAGUCCGGUAUCCGCGCUAGAAGGUGAGGGCUGGC [Aenatbe mod 16] (Eterna round: R96, puzzle: Exclusion NG 3) | 42.8 nM | 23.8 nM | 38.4 nM |  |  | 
ACAUGAGGAUCACCCAUGUCAGGUUGGUCCUCUCCGGCUGUUGAGGAUAUAGUCCGGUAUCCGCGCUAGAAGGUGAGGGCUGGC [Aenatbe mod 15] (Eterna round: R96, puzzle: Exclusion NG 3) | 21.4 nM | 17.2 nM | 21.3 nM |  |  | 
ACAUGAGGAUCACCCAUGUCCGGCUGGUCCGUCUCGGCUGUCGAGGAUAUAGCACGGUAUCCGCGCUAGAAGGCGGGAGCCGGA [Aenatbe mod 85] (Eterna round: R96, puzzle: Exclusion NG 3) | 72.4 nM | 26 nM | 39.6 nM |  |  | 
ACAUGAGGAUCACCCAUGUCUGGCUGGUCCGCUCCGGCUGUUGAGGAUAUAGUUCGGUGUUCGCGCUAGAAGGUGAGGGCUGGC [Aenatbe mod 36] (Eterna round: R96, puzzle: Exclusion NG 3) | 27.7 nM | 24.4 nM | 38.8 nM |  |  | 
ACAUGAGGAUCACCCAUGUCUGGCUGGUCUGUUCCGGCUGUUGAGGAUAUAGUCCGGUGUUCGCGCUAGAAGGUGAGGGCUGGA [Aenatbe mod 43] (Eterna round: R96, puzzle: Exclusion NG 3) | 54.5 nM | 32.9 nM | 57 nM |  |  | 
ACAUGAGGAUCACCCAUGUGAAAACAAUGGCUGACUUUGAGAUAGGAUAUAGGUGCAUAUCAAACCUAGAAGGGUCAUUACUGG [Deportation 91 - Jieux - Exclusion NG 3] (Eterna round: R96, puzzle: Exclusion NG 3) | 46.6 nM | 35.3 nM | 46.5 nM |  |  | 
ACAUGAGGAUCACCCAUGUGAACAUGAUGGCUGAUGUAGAGCUAGGAUAUGAGUGAAUAUCUAUCUCAGAAGGAGCUUGACUGG [Deportation 47 - Jieux - Exclusion NG 3] (Eterna round: R96, puzzle: Exclusion NG 3) | 34.1 nM | 14.1 nM | 23.2 nM |  |  | 
ACAUGAGGAUCACCCAUGUGGGUUCUCCAGCAUAAUAAGAGGUAGGAUAUGCAGUCGCCGAAGGAGCAGAAGGACCGCGUUUAU [Eternabot solution 50] (Eterna round: R96, puzzle: Exclusion NG 3) | 67.1 nM | 29.7 nM | 43.5 nM |  |  | 
ACAUGAGGAUCACCCAUGUUUGGCUGGUUCUCUCCGGCUGUCGAGGAUAUAGUCCGGUAUCCGCGCUAGAAGGUGAGGGCUGGC [Aenatbe mod 6] (Eterna round: R96, puzzle: Exclusion NG 3) | 17 nM | 12.3 nM | 16.1 nM |  |  | 
ACAUGCUAGUAGGAUAUCGUACGCCGAAUAGUAUGAGAAGGAUUGACAUGAGGAUCACCCAUGUGAUGCCUGAA [Quveedes] (Eterna round: R97, puzzle: Exclusion 6) | 22 nM |  | 18.7 nM |  |  | 
